Measured values from the nanobody polyreactivity screen of Harvey et al. (2022).

Experiment: yeast display, Sf9 membrane polyspecificity reagent, FACS + sequencing; frameworks hold sequencing errors
Summary of the method: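 In a synthetic yeast display library (Saccharomyces cerevisiae BJ5465), nanobody expression was induced with galactose for 36–48 hours. FACS gates were set low and high (top ~1%) using anti-HA fluorescence for expression and streptavidin fluorescence for binding of the Sf9 membrane reagent. Each polyreactivity label is drawn from the gate of origin.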

Sequence	polyreactivity (PSR sort gate)
QVQLVESGGGLVQAGGSLRLSCAASGRIFRYNAMGWYRQAPGKERELVAAITQSGGNTYYADSVKGRFTISRDNAKNTVYLQMNSLKPEDTAVYYCAAATRQFAGQRYGYWGQGTQVTVSS	high polyreactivity
QVQLVESGGGLVQAGGSLRLSCAASGRIFRYNAMGWYRQAPGKERELVADINSGGITNYADSVKGRFTISRDNAKNTVYFQKNSLKPEDTAVYYCNTATNLSCGYDSWGQGTQVTVSS	low polyreactivity
QVQLVESGGGLVQAGGSLRLSCAASGRIFRYNAMGWYRQAPGKERELVASISSGTSTTYADSVKGRFTISRDYAKNTVYLQMNSLKPEDTAVYYCAAVPSYRGYRGGYSNLWYYYWGQGTQVTVSS	high polyreactivity
QVQLVESGGGLVQAGGSLRLSCAASGRIFRYNAMGWYRQAPGKERELVASITSGGSTKYADSVKGRFTISRDNAKNTVYLQMNSLKPEDTAVYYCAAQRATPWPKNDYWGQGTQVTVSS	high polyreactivity
QVQLVESGGGLVQAGGSLRLSCAASGRIFRYNAMGWYRQAPGKERELVATISRGGGSTYYADSVKGRFTISRDNAKNTVYLQMNSLKPEDTAVYYCAAVGYYLVKFDYWGQGTQVTVSS	high polyreactivity
QVQLVESGGGLVQAGGSLRLSCAASGRIFRYNTMGWYRQAPGKEREFVAAITQRGVNTYYADSVKGRFTISRDNAKNTVYLQLNSLKPEDTAVYYCNAKRYSYWIYRAYDYWGQGTQVTVSS	low polyreactivity
QVQLVESGGGLVQAGGSLRLSCAASGRIFRYNTMGWYRQAPGKERELVAAITYRGGSTYYADSVKGRFTISRDNAKNTVYLQMNSLKPEDTAVYYCAASPARYWYGGKEYDYWGQGTQVTVSS	high polyreactivity
QVQLVESGGGLVQAGGSLRLSCAASGRIFRYYAMGWSRQAPGKERELVAAITSDGRTYYADSVKGRVTISRDNAKNTVYLQMNSLKPEDTAVYYCAADHHSYRYGGYYYWGQGTQVTVAS	low polyreactivity
QVQLVESGGGLVQAGGSLRLSCAASGRIFRYYAMGWYIQAPGKERELVAAISGSGGSTYYADSVKGRFTISRDNAKNTVYLQMNSLKPEDTAVYYCNARYRIPSGEGDHWGQGTQVTVSS	low polyreactivity
QVQLVESGGGLVQAGGSLRLSCAASGRIFRYYAMGWYIQAPGKERELVAAITRGGSTNYADSVKGRFTISRDNAKNTVYLQMNSLKPEDTAVYYCAARRQGRSGNGSWGQGTQVTVSS	high polyreactivity
QVQLVESGGGLVQAGGSLRLSCAASGRIFRYYAMGWYRQAPGKERELVAAIRWTAGSTYYADSVKGRFTISRDNAKNTVYLQMNSLKPEDTAVYYCATDVWKYGRYEYWGQGTLVTVSS	low polyreactivity
QVQLVESGGGLVQAGGSLRLSCAASGRIFRYYAMGWYRQAPGKERELVAAISTSGDTTYYADSVKGRFTISRDNAKNTVYLQMNSLKPEDTAVYYCAKPIAPARNAYPAYDYWGQGTQVTVSS	high polyreactivity
QVQLVESGGGLVQAGGSLRLSCAASGRIFRYYAMGWYRQAPGKERELVAAISWSGGSTYYADSVKGRFTISRDNAKNTVYLQMNSLKPEDTAVYYCNAYIYRAVPYDYWGQGTQVTVSS	high polyreactivity
QVQLVESGGGLVQAGGSLRLSCAASGRIFRYYAMGWYRQAPGKERELVAAITSDGRTYYADSVKGRFTISRDNAKNTVYLQMNSLKPEDTAVYYCAADHHSYRYGGYYYWGQGTQVTVSS	low polyreactivity
QVQLVESGGGLVQAGGSLRLSCAASGRIFRYYAMGWYRQAPGKERELVAAITSGGNTYYADSVKGRFTISRDNAKNTVYLQMNSLKPVDTAVYYCADGRNLYHFYYWGQGTQVTVSS	high polyreactivity
QVQLVESGGGLVQAGGSLRLSCAASGRIFRYYAMGWYRQAPGKERELVAGITGSGTTNYADSVKGRFTISRDNAKNTVYLQMNSLKPEDTAVYYCNADRYTFWYRYERGYWGQGTQVTVSS	high polyreactivity
QVQLVESGGGLVQAGGSLRLSCAASGRIFRYYAMGWYRQAPGKERELVARISWSGGDTYYADSVKGRFTISRDNAKNTVYLQMNSLKPEDTAVYYCNAEAWYSVEYDYWGQGTQVTVSS	low polyreactivity
